In the data set the target is T1, QCP (bacteriophage Qβ coat protein) (bacteriophage Qβ, UniProt P03615 2-133).
T1 sequence: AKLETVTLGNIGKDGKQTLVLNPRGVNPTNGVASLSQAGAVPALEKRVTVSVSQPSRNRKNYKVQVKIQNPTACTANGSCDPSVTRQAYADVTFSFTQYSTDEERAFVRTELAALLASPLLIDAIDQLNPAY
The data set is described as follows: SPR.

The Kd is the concentration at which binding is half-saturated. Low values mean tighter binding, high ones weaker binding. CCAUUAGCUAAGCUAAUGGAAAAAAAAAAAAAAAAAAAAAAAA (structured_RNA) [A14] had a Kd of 17.8 nM.
Then CCUCUAGCUAAGCUAUAGGAAAAAAAAAAAAAAAAAAAAAAAA (structured_RNA) [A17], with 90.8 nM; and CCCUUAGCUAAGCUAAGUGAAAAAAAAAAAAAAAAAAAAAAAA (structured_RNA) [A18], with 16 nM.
On to CCGUUAGCUAAGCUAAUGGAAAAAAAAAAAAAAAAAAAAAAAA (structured_RNA) [A15], for which binding was put at a Kd of 86.2 nM.
The result for CCUUUAGCUAAGCUAAUGGAAAAAAAAAAAAAAAAAAAAAAAA (structured_RNA) [A16] reads 28.9 nM; that for CCCUUAGCUAAGCUAAGGUAAAAAAAAAAAAAAAAAAAAAAAA (structured_RNA) [A19], 80.4 nM.
